In article PMC4456664 (2015):

Target: BSA (Bos taurus, UniProt P02769)
Experiment: ITC

BSA, sequence (P02769 25-607): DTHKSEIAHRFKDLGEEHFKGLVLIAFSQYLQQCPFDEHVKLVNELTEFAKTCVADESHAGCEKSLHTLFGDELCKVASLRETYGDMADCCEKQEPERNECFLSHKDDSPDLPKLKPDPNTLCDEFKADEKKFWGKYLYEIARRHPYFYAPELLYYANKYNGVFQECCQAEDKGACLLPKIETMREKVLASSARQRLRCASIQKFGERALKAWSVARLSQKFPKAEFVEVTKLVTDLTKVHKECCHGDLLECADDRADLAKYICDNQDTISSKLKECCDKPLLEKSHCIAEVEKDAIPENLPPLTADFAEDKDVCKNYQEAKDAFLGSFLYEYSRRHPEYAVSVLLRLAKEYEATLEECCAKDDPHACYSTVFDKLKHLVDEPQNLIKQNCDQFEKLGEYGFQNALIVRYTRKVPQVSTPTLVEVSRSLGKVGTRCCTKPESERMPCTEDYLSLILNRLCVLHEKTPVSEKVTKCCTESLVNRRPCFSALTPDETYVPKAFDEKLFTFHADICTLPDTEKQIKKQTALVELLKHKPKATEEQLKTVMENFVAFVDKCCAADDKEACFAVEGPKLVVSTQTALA

- Kd: 3000 nM
B1: PYL10 (protein)
chain: MNGDETKKVESEYIKKHHRHELVESQCSSTLVKHIKAPLHLVWSIVRRFDEPQKYKPFISRCVVQGKKLEVGSVREVDLKSGLPATKSTEVLEILDDNEHILGIRIVGGDHRLKNYSSTISLHSETIDGKTGTLAIESFVVDVPEGNTKEETCFFVEALIQCNLNSLADVTERLQAESMEKKI
